Reference: patent US20250352579A1 (HEBEI SENLANG BIOTECHNOLOGY, published 2025)

B1: VHH20 single VHH CAR (other)
chain: QVQLQESGGGLVQPGGSLRLSCAASGTTLDDYAVGWFRQAPGKEREGVACISASELSTYYADSVKGRFTISRDNAKNTMYLQMNSLKPEDTAVYYCAARVGRIVDVTSTQYQYWGQGTQVTVSSTTPAPRPPTPAPTIASQPLSLRPEACRPAAGGAVHTRGLDFACDIYIWAPLAGTCGVLLLSLVITLYCKRGRKKLLYIFKQPFMRPVQTTQEEDGCSCRFPEEEEGGCELRVKFSRSADAPAYKQGQNQLYNELNLGRREEYDVLDKRRGRDPEMGGKPRRKNPQEGLYNELQKDKMAEAYSEIGMKGERRRGKGHDGLYQGLSTATKDTYDALHMQALPPR
B2: VHH06 single VHH CAR (other)
chain: QVQLQESGGGLVQAGGSLRLSCAASGRTFSSYNMGWFRQAPGAEREFVAAISRGGGSTYYADSVKGRFTISRDNAKNTVYLQMNSLRPEDTAVYYCADSGARAYSGSYLDFGSWGQGTQVTVSSTTPAPRPPTPAPTIASQPLSLRPEACRPAAGGAVHTRGLDFACDIYIWAPLAGTCGVLLLSLVITLYCKRGRKKLLYIFKQPFMRPVQTTQEEDGCSCRFPEEEEGGCELRVKFSRSADAPAYKQGQNQLYNELNLGRREEYDVLDKRRGRDPEMGGKPRRKNPQEGLYNELQKDKMAEAYSEIGMKGERRRGKGHDGLYQGLSTATKDTYDALHMQALPPR
B3: dVHH-D (other)
chain (part 1 of 2): QVQLQESGGGLVQTGGSLRLSCEASERTFSSNAVGWFRQAPGKEREFVAAITWSVGTTYYADSVKGRFTISRDNAKNTVYLQMNSLKPEDTAVYYCAASGARHYSGSYLDFGSWGQGTQVTVSS
chain (part 2 of 2): QVQLQESGGGLVQPGGSLRLSCAASGSTLDYYAIGWFRQAPGKEREGISCISNSGGMTNYADSVKGRFTISRDNAKNTVYLQMNSLKPEDTAVYYCAAGPAWSYCSGYVPAGLDKFGSWGQGTQVTVSS
notes: also called VHH-10+VHH-12; double VHH antibody dVHH-D; not shown: Linker
B4: dVHH-E (other)
chain (part 1 of 2): QVQLQESGGGLVQTGGSLRLSCEASERTFSSNAVGWFRQAPGKEREFVAAITWSVGTTYYADSVKGRFTISRDNAKNTVYLQMNSLKPEDTAVYYCAASGARHYSGSYLDFGSWGQGTQVTVSS
chain (part 2 of 2): QVQLQESGGGLVQTGGSLRLSCEASERTFSSNAVGWFRQAPGKEREFVAAITWSVGTTYYADSVKGRFTISRDNAKNTVYLQMNSLKPEDTAVYYCAASGARHYSGSYLDFGSWGQGTQVTVSS
notes: also called VHH-10+VHH-10; double VHH antibody dVHH-E; not shown: Linker
B5: VHH10 (VHH)
VHH: QVQLQESGGGLVQTGGSLRLSCEASERTFSSNAVGWFRQAPGKEREFVAAITWSVGTTYYADSVKGRFTISRDNAKNTVYLQMNSLKPEDTAVYYCAASGARHYSGSYLDFGSWGQGTQVTVSS
notes: Variable region only; also called anti-CD7 nanobody VHH10
B6: VHH12 (VHH)
VHH: QVQLQESGGGLVQPGGSLRLSCAASGSTLDYYAIGWFRQAPGKEREGISCISNSGGMTNYADSVKGRFTISRDNAKNTVYLQMNSLKPEDTAVYYCAAGPAWSYCSGYVPAGLDKFGSWGQGTQVTVSS
notes: Variable region only; also called anti-CD7 nanobody VHH12
B7: VHH07 single VHH CAR (other)
chain: QVQLQESGGGLVQAGGSLRLSCAASGRTFSSYVMKWFRQAPGKGREFVAGISWSGSLTSYSDSVKGRFTISRDNAKNTVYLQMNSLKPEDTAVYYCAAGEAATMSDTDYGMDYWGKGTQVTVSSTTPAPRPPTPAPTIASQPLSLRPEACRPAAGGAVHTRGLDFACDIYIWAPLAGTCGVLLLSLVITLYCKRGRKKLLYIFKQPFMRPVQTTQEEDGCSCRFPEEEEGGCELRVKFSRSADAPAYKQGQNQLYNELNLGRREEYDVLDKRRGRDPEMGGKPRRKNPQEGLYNELQKDKMAEAYSEIGMKGERRRGKGHDGLYQGLSTATKDTYDALHMQALPPR
B8: VHH10 single VHH CAR (other)
chain: QVQLQESGGGLVQTGGSLRLSCEASERTFSSNAVGWFRQAPGKEREFVAAITWSVGTTYYADSVKGRFTISRDNAKNTVYLQMNSLKPEDTAVYYCAASGARHYSGSYLDFGSWGQGTQVTVSSTTPAPRPPTPAPTIASQPLSLRPEACRPAAGGAVHTRGLDFACDIYIWAPLAGTCGVLLLSLVITLYCKRGRKKLLYIFKQPFMRPVQTTQEEDGCSCRFPEEEEGGCELRVKFSRSADAPAYKQGQNQLYNELNLGRREEYDVLDKRRGRDPEMGGKPRRKNPQEGLYNELQKDKMAEAYSEIGMKGERRRGKGHDGLYQGLSTATKDTYDALHMQALPPR
B9: VHH08 single VHH CAR (other)
chain: QVQLQESGGGLVQPGGSLRLSCAASGSIFSIHAMAWYRQAPGKQRELVASITVGGRTNYVDSVLGRFTISRDNAKNTVYLQMNSLKPEDTAVYYCNSLLWAGLRDSWGPGTQVTVSSTTPAPRPPTPAPTIASQPLSLRPEACRPAAGGAVHTRGLDFACDIYIWAPLAGTCGVLLLSLVITLYCKRGRKKLLYIFKQPFMRPVQTTQEEDGCSCRFPEEEEGGCELRVKFSRSADAPAYKQGQNQLYNELNLGRREEYDVLDKRRGRDPEMGGKPRRKNPQEGLYNELQKDKMAEAYSEIGMKGERRRGKGHDGLYQGLSTATKDTYDALHMQALPPR
B10: VHH14 single VHH CAR (other)
chain: QVQLQESGGGLVQPGGSLRLSCTASGLTLGYYAIGWFRQAPGKEREFVSTISASGGMTYYADSVKGRFTISRDNAKNTVYLEMNSLKPEDTAVYYCAAEYLGNLRHFRGDHWGKGTQVTVSSTTPAPRPPTPAPTIASQPLSLRPEACRPAAGGAVHTRGLDFACDIYIWAPLAGTCGVLLLSLVITLYCKRGRKKLLYIFKQPFMRPVQTTQEEDGCSCRFPEEEEGGCELRVKFSRSADAPAYKQGQNQLYNELNLGRREEYDVLDKRRGRDPEMGGKPRRKNPQEGLYNELQKDKMAEAYSEIGMKGERRRGKGHDGLYQGLSTATKDTYDALHMQALPPR
B11: VHH19 single VHH CAR (other)
chain: QVQLQESGGGLVQPGGSLRLSCTASGRAFSMYVMGWFRQAPGKEREFVSTISASGGMTYYADSVKGRFTISRDNAKNTVYLEMNSLKPEDTAVYYCAAEYLGNLRHFRGDHWGKGTQVTVSSTTPAPRPPTPAPTIASQPLSLRPEACRPAAGGAVHTRGLDFACDIYIWAPLAGTCGVLLLSLVITLYCKRGRKKLLYIFKQPFMRPVQTTQEEDGCSCRFPEEEEGGCELRVKFSRSADAPAYKQGQNQLYNELNLGRREEYDVLDKRRGRDPEMGGKPRRKNPQEGLYNELQKDKMAEAYSEIGMKGERRRGKGHDGLYQGLSTATKDTYDALHMQALPPR
B12: VHH12 single VHH CAR (other)
chain: QVQLQESGGGLVQPGGSLRLSCAASGSTLDYYAIGWFRQAPGKEREGISCISNSGGMTNYADSVKGRFTISRDNAKNTVYLQMNSLKPEDTAVYYCAAGPAWSYCSGYVPAGLDKFGSWGQGTQVTVSSTTPAPRPPTPAPTIASQPLSLRPEACRPAAGGAVHTRGLDFACDIYIWAPLAGTCGVLLLSLVITLYCKRGRKKLLYIFKQPFMRPVQTTQEEDGCSCRFPEEEEGGCELRVKFSRSADAPAYKQGQNQLYNELNLGRREEYDVLDKRRGRDPEMGGKPRRKNPQEGLYNELQKDKMAEAYSEIGMKGERRRGKGHDGLYQGLSTATKDTYDALHMQALPPR

Columns and labels:
[1] = target: T1, CD7 on cells (K562-CD7 positive cells; KG-1a-GFP-Luc; CCRF-CEM) (UniProt P09564 26-240, limits assumed); test: cell-based or functional assay
T1 sequence (looked up): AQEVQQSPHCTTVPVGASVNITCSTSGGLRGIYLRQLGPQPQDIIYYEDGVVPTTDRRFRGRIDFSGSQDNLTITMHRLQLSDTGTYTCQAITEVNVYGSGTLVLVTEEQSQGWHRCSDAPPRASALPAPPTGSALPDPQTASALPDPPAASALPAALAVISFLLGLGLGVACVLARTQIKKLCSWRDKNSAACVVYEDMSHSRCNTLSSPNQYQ

[2] = target: T2, CD7-His protein (UniProt P09564 26-180, limits assumed); test: SPR, CD7-His immobilised on CM5 chip by amino coupling, antibody as analyte
T2 construct: extracellular domain; also called recombinant CD7-His protein; CD7 antigen; not shown: His tag
T2 sequence (looked up): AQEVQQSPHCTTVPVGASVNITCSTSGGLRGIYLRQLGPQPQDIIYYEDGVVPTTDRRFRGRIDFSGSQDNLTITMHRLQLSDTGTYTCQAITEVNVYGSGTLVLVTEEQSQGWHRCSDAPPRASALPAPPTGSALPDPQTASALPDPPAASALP
Experimental: In this example, the affinities of the antibodies were measured using the SPR method (surface plasmon resonance method) by immobilizing the CD7-His protein prepared in Example 1 on the CM5 chip through amino coupling method, using the antibodies (dVHH-D, dVHH-E, VHH10, and VHH12) as analytes for the experiments to detect the affinity of each antibody to the CD7 antigen.

Row | Binder | killing ratio, CAR-T cells on KG-1a-GFP-Luc, E:T=3:1, 4 h, luciferase [1] [%] | Kd [2] [nM] | koff [2] [s⁻¹] | kon [2] [M⁻¹ s⁻¹]
1 | B1 | 9.38 |  |  | 
2 | B2 | 62.2 |  |  | 
3 | B3 |  | 3.35 | 0.000754 | 225000
4 | B4 |  | 4.51 | 0.000557 | 123000
5 | B5 |  | 99.9 | 0.0164 | 164000
6 | B6 |  | 1.34 | 9.95e-05 | 74200
7 | B7 | 61.6 |  |  | 
8 | B8 | 91.4 |  |  | 
9 | B9 | 68.5 |  |  | 
10 | B10 | 60.4 |  |  | 
11 | B11 | 61.7 |  |  | 
12 | B12 | 78.2 |  |  | 
